Key:
[1] = substrate: Cc1cc(=O)oc2c(F)c(OP(=O)(O)O)c(F)cc12; assay: fluorogenic DiFMUP hydrolysis, Michaelis-Menten fit; assay type: biochemical, Homo sapiens; details: 50 mM Hepes, 3 mM DTT, 0.1 mg/ml BSA, pH 6.5, 37 °C, DiFMUP 0-300 µM, wild type inactive
Text: fluorogenic DiFMUP hydrolysis, Michaelis-Menten fit on Flag-HD-PTP full-length (HD)

[2] = substrate: Cc1cc(=O)oc2c(F)c(OP(=O)(O)O)c(F)cc12; assay: as above; assay type: biochemical, Homo sapiens; details: 50 mM Hepes, 3 mM DTT, 0.1 mg/ml BSA, pH 6.5, 37 °C, DiFMUP 0-300 µM, wild type inactive; remark: listed apart in the source
Text: fluorogenic DiFMUP hydrolysis, Michaelis-Menten fit on Flag-HD-PTP catalytic domain (CD)

Protein | Km [1] [µM] | kcat [1] [s⁻¹] | kcat/Km [1] [M⁻¹ s⁻¹] | Km [2] [µM] | kcat [2] [s⁻¹]
Flag-HD-PTP full-length (HD) (Homo sapiens; S1394A) (protein, full length, residues 1-1636, 2xFlag tag kept, expressed in HEK 293T, anti-Flag purified) MEAVPRMPMIWLDLKEAGDFHFQPAVKKFVLKNYGENPEAYNEELKKLELLRQNAVRVPRDFEGCSVLRKYLGQLHYLQSRVPMGSGQEAAVPVTWTEIFSGKSVAHEDIKYEQACILYNLGALHSMLGAMDKRVSEEGMKVSCTHFQCAAGAFAYLREHFPQAYSVDMSRQILTLNVNLMLGQAQECLLEKSMLDNRKSFLVARISAQVVDYYKEACRALENPDTASLLGRIQKDWKKLVQMKIYYFAAVAHLHMGKQAEEQQKFGERVAYFQSALDKLNEAIKLAKGQPDTVQDALRFTMDVIGGKYNSAKKDNDFIYHEAVPALDTLQPVKGAPLVKPLPVNPTDPAVTGPDIFAKLVPMAAHEASSLYSEEKAKLLREMMAKIEDKNEVLDQFMDSMQLDPETVDNLDAYSHIPPQLMEKCAALSVRPDTVRNLVQSMQVLSGVFTDVEASLKDIRDLLEEDELLEQKFQEAVGQAGAISITSKAELAEVRREWAKYMEVHEKASFTNSELHRAMNLHVGNLRLLSGPLDQVRAALPTPALSPEDKAVLQNLKRILAKVQEMRDQRVSLEQQLRELIQKDDITASLVTTDHSEMKKLFEEQLKKYDQLKVYLEQNLAAQDRVLCALTEANVQYAAVRRVLSDLDQKWNSTLQTLVASYEAYEDLMKKSQEGRDFYADLESKVAALLERTQSTCQAREAARQQLLDRELKKKPPPRPTAPKPLLPRREESEAVEAGDPPEELRSLPPDMVAGPRLPDTFLGSATPLHFPPSPFPSSTGPGPHYLSGPLPPGTYSGPTQLIQPRAPGPHAMPVAPGPALYPAPAYTPELGLVPRSSPQHGVVSSPYVGVGPAPPVAGLPSAPPPQFSGPELAMAVRPATTTVDSIQAPIPSHTAPRPNPTPAPPPPCFPVPPPQPLPTPYTYPAGAKQPIPAQHHFSSGIPAGFPAPRIGPQPQPHPQPHPSQAFGPQPPQQPLPLQHPHLFPPQAPGLLPPQSPYPYAPQPGVLGQPPPPLHTQLYPGPAQDPLPAHSGALPFPSPGPPQPPHPPLAYGPAPSTRPMGPQAAPLTIRGPSSAGQSTPSPHLVPSPAPSPGPGPVPPRPPAAEPPPCLRRGAAAADLLSSSPESQHGGTQSPGGGQPLLQPTKVDAAEGRRPQALRLIERDPYEHPERLRQLQQELEAFRGQLGDVGALDTVWRELQDAQEHDARGRSIAIARCYSLKNRHQDVMPYDSNRVVLRSGKDDYINASCVEGLSPYCPPLVATQAPLPGTAADFWLMVHEQKVSVIVMLVSEAEMEKQKVARYFPTERGQPMVHGALSLALSSVRSTETHVERVLSLQFRDQSLKRSLVHLHFPTWPELGLPDSPSNLLRFIQEVHAHYLHQRPLHTPIIVHCSAGVGRTGAFALLYAAVQEVEAGNGIPELPQLVRRMRQQRKHMLQEKLHLRFCYEAVVRHVEQVLQRHGVPPPCKPLASASISQKNHLPQDSQDLVLGGDVPISSIQATIAKLSIRPPGGLESPVASLPGPAEPPGLPPASLPESTPIPSSSPPPLSSPLPEAPQPKEEPPVPEAPSSGPPSSSLELLASLTPEAFSLDSSLRGKQRMSKHNFLQAHNGQGLRATRPSDDPLSLLDPLWTLNKT | 28 | 0.2 | 6000 |  | 
Flag-HD-PTP catalytic domain (CD) (Homo sapiens; S1394A) (protein, PTP catalytic domain, residues 1169-1460, 2xFlag tag kept, expressed in HEK 293T, anti-Flag purified) ERLRQLQQELEAFRGQLGDVGALDTVWRELQDAQEHDARGRSIAIARCYSLKNRHQDVMPYDSNRVVLRSGKDDYINASCVEGLSPYCPPLVATQAPLPGTAADFWLMVHEQKVSVIVMLVSEAEMEKQKVARYFPTERGQPMVHGALSLALSSVRSTETHVERVLSLQFRDQSLKRSLVHLHFPTWPELGLPDSPSNLLRFIQEVHAHYLHQRPLHTPIIVHCSAGVGRTGAFALLYAAVQEVEAGNGIPELPQLVRRMRQQRKHMLQEKLHLRFCYEAVVRHVEQVLQRH |  |  |  | 18 | 0.1

Reference: PMC2661844, “HD-PTP Is a Catalytically Inactive Tyrosine Phosphatase Due to a Conserved Divergence in Its Phosphatase Domain” (PLoS ONE, 2009)
